Among the data in PMC4694995 are amount pulled down by anti-PD1 antibody, against pLAG3 and amount pulled down by anti-PD1 antibody in cells with pΔCY, against cells with pLAG3 values, retold here.

In the experiment the target is programmed cell death 1 (PD1), endogenous in mouse CD8+ T cells (mouse (endogenous in OT-1 and C57BL/6 CD8+ T cells)) (UniProt Q02242). The experiment in a line: co-IP; Lag3-/- or Pdcd1-/- mouse CD8+ T cells retrovirally transduced with LAG3 or PD1 constructs (pMIG-II), sorted, rested in IL2, restimulated with IE9mp1 for 5 min or treated with pervanadate for 5 min; antibody-conjugated Dynal beads; Western blot, densitometry normalised to input.
programmed cell death 1 (PD1), endogenous in mouse CD8+ T cells (mouse (endogenous in OT-1 and C57BL/6 CD8+ T cells)), sequence (Q02242 25-288): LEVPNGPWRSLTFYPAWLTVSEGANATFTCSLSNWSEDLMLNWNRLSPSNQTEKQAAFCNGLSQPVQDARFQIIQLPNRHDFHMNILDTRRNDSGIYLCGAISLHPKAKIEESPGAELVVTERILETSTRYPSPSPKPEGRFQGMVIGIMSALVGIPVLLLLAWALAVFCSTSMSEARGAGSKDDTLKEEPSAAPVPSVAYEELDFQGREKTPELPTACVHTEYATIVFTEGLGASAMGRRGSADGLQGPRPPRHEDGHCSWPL

Src-homology-2 domain-containing phosphatase SHP1, endogenous in mouse CD8+ T cells, P29351 1-595 (enzyme; other documents disagree on this pair), sequence (P29351 whole entry): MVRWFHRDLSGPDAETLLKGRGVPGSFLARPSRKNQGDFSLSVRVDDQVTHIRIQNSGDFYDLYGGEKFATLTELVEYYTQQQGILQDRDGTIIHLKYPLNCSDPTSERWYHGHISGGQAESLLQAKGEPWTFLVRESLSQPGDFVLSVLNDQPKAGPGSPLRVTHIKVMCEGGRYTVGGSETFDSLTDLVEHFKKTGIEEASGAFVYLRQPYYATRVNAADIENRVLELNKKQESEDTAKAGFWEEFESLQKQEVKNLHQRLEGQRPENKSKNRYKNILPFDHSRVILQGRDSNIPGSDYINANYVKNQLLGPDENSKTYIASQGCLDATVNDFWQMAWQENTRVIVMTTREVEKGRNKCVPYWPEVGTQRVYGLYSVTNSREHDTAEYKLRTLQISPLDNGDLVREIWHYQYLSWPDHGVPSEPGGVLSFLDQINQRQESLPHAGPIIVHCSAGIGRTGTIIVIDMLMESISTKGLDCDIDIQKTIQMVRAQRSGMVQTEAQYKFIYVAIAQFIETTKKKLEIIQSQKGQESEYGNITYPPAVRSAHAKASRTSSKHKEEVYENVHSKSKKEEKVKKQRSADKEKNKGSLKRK

In turn, “LAG3 lacking the cytoplasmic domain, expressed from pMIG-LAG3ΔCY in Lag3-/- CD8+ T cells (domain or fragment)” showed an amount pulled down by anti-PD1 antibody, against pLAG3 of 30 % lower. For “Src-homology-2 domain-containing phosphatase SHP1, endogenous in mouse CD8+ T cells, P29351 1-595 (enzyme; other documents disagree on this pair)”, the amount pulled down by anti-PD1 antibody in cells with pΔCY, against cells with pLAG3 worked out at 20 % less.
